From the supplement of paper PMC12338614 come the findings set out here.

Sequences and labels used below:
B1: library; numbered along this chain (parent)
chain: MEVVDPQQLGMFTEGELMSVGMDTFIHRIDSTEVIYQPRRKRAKLIGKYLMGDLLGEGSYGKVKEVLDSETLCRRAVKILKKKKLRRIPNGEANVKKEIQLLRRLRHKNVIQLVDVLYNEEKQKMYMVMEYCVCGMQEMLDSVPEKRFPVCQAHGYFCQLIDGLEYLHSQGIVHKDIKPGNLLLTTGGTLKISDLGVAEALHPFAADDTCRTSQGSPAFQPPEIANGLDTFSGFKVDIWSAGVTLYNITTGLYPFEGDNIYKLFENIGKGSYAIPGDCGPPLSDLLKGMLEYEPAKRFSIRQIRQHSWFRKKHPPAEAPVPIPPSPDTKDRWRSMTVVPYLEDLHGADEDEDLFDIEDDIIYTQDFTVPGQVPEEEASHNGQRRGLPKAVCMNGTEAAQLSTKSRAEGRAPNPARKACSASSKIRRLSACKQQ

± gives the uncertainty stated by the source.

The variants in this series derive from B1. Kind of series: STK11 functional score (HeLa growth suppression), rescaled enrichment; synonymous median = 1, nonsense median = 0 (normalised score). To be noted: with HeLa; variant type: missense. How it is done: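 Deep mutational scan (TileSeq/POPCode codon randomisation) of full-length codon-optimised STK11 cDNA integrated at a Bxb1 landing pad (AAVS1) in HeLa cells. Restoring functional STK11 suppresses HeLa proliferation. Variant frequencies were measured by NGS before and after about two weeks of growth. The error-corrected enrichment log-ratio was rescaled so that synonymous median = 1 and nonsense median = 0, scores above 1 were compressed, and codon-level and three biological replicate scores were combined; error is the bootstrapped standard error. Scale: synonymous median = 1, nonsense median = 0; below 0.5 = damaging.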
As to MEVVDPQQLGMFTEGELMSVGMDTFIHRIDSTEVIYQPRRKRAKLIGKWLMGDLLGEGSYGKVKEVLDSETLCRRAVKILKKKKLRRIPNGEANVKKEIQLLRRLRHKNVIQLVDVLYNEEKQKMYMVMEYCVCGMQEMLDSVPEKRFPVCQAHGYFCQLIDGLEYLHSQGIVHKDIKPGNLLLTTGGTLKISDLGVAEALHPFAADDTCRTSQGSPAFQPPEIANGLDTFSGFKVDIWSAGVTLYNITTGLYPFEGDNIYKLFENIGKGSYAIPGDCGPPLSDLLKGMLEYEPAKRFSIRQIRQHSWFRKKHPPAEAPVPIPPSPDTKDRWRSMTVVPYLEDLHGADEDEDLFDIEDDIIYTQDFTVPGQVPEEEASHNGQRRGLPKAVCMNGTEAAQLSTKSRAEGRAPNPARKACSASSKIRRLSACKQQ [Y49W], the STK11 functional score was 1.01 ± 0.096. Regarding MEVVDPQQLGMFTEGELMSVGMDTFIHRIDSTEVIYQPRRKRAKLIGKYTMGDLLGEGSYGKVKEVLDSETLCRRAVKILKKKKLRRIPNGEANVKKEIQLLRRLRHKNVIQLVDVLYNEEKQKMYMVMEYCVCGMQEMLDSVPEKRFPVCQAHGYFCQLIDGLEYLHSQGIVHKDIKPGNLLLTTGGTLKISDLGVAEALHPFAADDTCRTSQGSPAFQPPEIANGLDTFSGFKVDIWSAGVTLYNITTGLYPFEGDNIYKLFENIGKGSYAIPGDCGPPLSDLLKGMLEYEPAKRFSIRQIRQHSWFRKKHPPAEAPVPIPPSPDTKDRWRSMTVVPYLEDLHGADEDEDLFDIEDDIIYTQDFTVPGQVPEEEASHNGQRRGLPKAVCMNGTEAAQLSTKSRAEGRAPNPARKACSASSKIRRLSACKQQ [L50T], the STK11 functional score is 1.29 ± 0.23. Take MEVVDPQQLGMFTEGELMSVGMDTFIHRIDSTEVIYQPRRKRAKLIGKYSMGDLLGEGSYGKVKEVLDSETLCRRAVKILKKKKLRRIPNGEANVKKEIQLLRRLRHKNVIQLVDVLYNEEKQKMYMVMEYCVCGMQEMLDSVPEKRFPVCQAHGYFCQLIDGLEYLHSQGIVHKDIKPGNLLLTTGGTLKISDLGVAEALHPFAADDTCRTSQGSPAFQPPEIANGLDTFSGFKVDIWSAGVTLYNITTGLYPFEGDNIYKLFENIGKGSYAIPGDCGPPLSDLLKGMLEYEPAKRFSIRQIRQHSWFRKKHPPAEAPVPIPPSPDTKDRWRSMTVVPYLEDLHGADEDEDLFDIEDDIIYTQDFTVPGQVPEEEASHNGQRRGLPKAVCMNGTEAAQLSTKSRAEGRAPNPARKACSASSKIRRLSACKQQ [L50S]: the STK11 functional score came to 1.09 ± 0.12. For the variant MEVVDPQQLGMFTEGELMSVGMDTFIHRIDSTEVIYQPRRKRAKLIGKYPMGDLLGEGSYGKVKEVLDSETLCRRAVKILKKKKLRRIPNGEANVKKEIQLLRRLRHKNVIQLVDVLYNEEKQKMYMVMEYCVCGMQEMLDSVPEKRFPVCQAHGYFCQLIDGLEYLHSQGIVHKDIKPGNLLLTTGGTLKISDLGVAEALHPFAADDTCRTSQGSPAFQPPEIANGLDTFSGFKVDIWSAGVTLYNITTGLYPFEGDNIYKLFENIGKGSYAIPGDCGPPLSDLLKGMLEYEPAKRFSIRQIRQHSWFRKKHPPAEAPVPIPPSPDTKDRWRSMTVVPYLEDLHGADEDEDLFDIEDDIIYTQDFTVPGQVPEEEASHNGQRRGLPKAVCMNGTEAAQLSTKSRAEGRAPNPARKACSASSKIRRLSACKQQ [L50P], the STK11 functional score was 0.95 ± 0.22. With MEVVDPQQLGMFTEGELMSVGMDTFIHRIDSTEVIYQPRRKRAKLIGKYDMGDLLGEGSYGKVKEVLDSETLCRRAVKILKKKKLRRIPNGEANVKKEIQLLRRLRHKNVIQLVDVLYNEEKQKMYMVMEYCVCGMQEMLDSVPEKRFPVCQAHGYFCQLIDGLEYLHSQGIVHKDIKPGNLLLTTGGTLKISDLGVAEALHPFAADDTCRTSQGSPAFQPPEIANGLDTFSGFKVDIWSAGVTLYNITTGLYPFEGDNIYKLFENIGKGSYAIPGDCGPPLSDLLKGMLEYEPAKRFSIRQIRQHSWFRKKHPPAEAPVPIPPSPDTKDRWRSMTVVPYLEDLHGADEDEDLFDIEDDIIYTQDFTVPGQVPEEEASHNGQRRGLPKAVCMNGTEAAQLSTKSRAEGRAPNPARKACSASSKIRRLSACKQQ [L50D] the figure was 1.39 ± 0.39. In the case of MEVVDPQQLGMFTEGELMSVGMDTFIHRIDSTEVIYQPRRKRAKLIGKYWMGDLLGEGSYGKVKEVLDSETLCRRAVKILKKKKLRRIPNGEANVKKEIQLLRRLRHKNVIQLVDVLYNEEKQKMYMVMEYCVCGMQEMLDSVPEKRFPVCQAHGYFCQLIDGLEYLHSQGIVHKDIKPGNLLLTTGGTLKISDLGVAEALHPFAADDTCRTSQGSPAFQPPEIANGLDTFSGFKVDIWSAGVTLYNITTGLYPFEGDNIYKLFENIGKGSYAIPGDCGPPLSDLLKGMLEYEPAKRFSIRQIRQHSWFRKKHPPAEAPVPIPPSPDTKDRWRSMTVVPYLEDLHGADEDEDLFDIEDDIIYTQDFTVPGQVPEEEASHNGQRRGLPKAVCMNGTEAAQLSTKSRAEGRAPNPARKACSASSKIRRLSACKQQ [L50W], the STK11 functional score is 0.44 ± 0.99. For MEVVDPQQLGMFTEGELMSVGMDTFIHRIDSTEVIYQPRRKRAKLIGKYGMGDLLGEGSYGKVKEVLDSETLCRRAVKILKKKKLRRIPNGEANVKKEIQLLRRLRHKNVIQLVDVLYNEEKQKMYMVMEYCVCGMQEMLDSVPEKRFPVCQAHGYFCQLIDGLEYLHSQGIVHKDIKPGNLLLTTGGTLKISDLGVAEALHPFAADDTCRTSQGSPAFQPPEIANGLDTFSGFKVDIWSAGVTLYNITTGLYPFEGDNIYKLFENIGKGSYAIPGDCGPPLSDLLKGMLEYEPAKRFSIRQIRQHSWFRKKHPPAEAPVPIPPSPDTKDRWRSMTVVPYLEDLHGADEDEDLFDIEDDIIYTQDFTVPGQVPEEEASHNGQRRGLPKAVCMNGTEAAQLSTKSRAEGRAPNPARKACSASSKIRRLSACKQQ [L50G], the STK11 functional score stood at 0.949 ± 0.24. For MEVVDPQQLGMFTEGELMSVGMDTFIHRIDSTEVIYQPRRKRAKLIGKYHMGDLLGEGSYGKVKEVLDSETLCRRAVKILKKKKLRRIPNGEANVKKEIQLLRRLRHKNVIQLVDVLYNEEKQKMYMVMEYCVCGMQEMLDSVPEKRFPVCQAHGYFCQLIDGLEYLHSQGIVHKDIKPGNLLLTTGGTLKISDLGVAEALHPFAADDTCRTSQGSPAFQPPEIANGLDTFSGFKVDIWSAGVTLYNITTGLYPFEGDNIYKLFENIGKGSYAIPGDCGPPLSDLLKGMLEYEPAKRFSIRQIRQHSWFRKKHPPAEAPVPIPPSPDTKDRWRSMTVVPYLEDLHGADEDEDLFDIEDDIIYTQDFTVPGQVPEEEASHNGQRRGLPKAVCMNGTEAAQLSTKSRAEGRAPNPARKACSASSKIRRLSACKQQ [L50H], the STK11 functional score was found to be 1.08 ± 0.14. For the variant MEVVDPQQLGMFTEGELMSVGMDTFIHRIDSTEVIYQPRRKRAKLIGKYIMGDLLGEGSYGKVKEVLDSETLCRRAVKILKKKKLRRIPNGEANVKKEIQLLRRLRHKNVIQLVDVLYNEEKQKMYMVMEYCVCGMQEMLDSVPEKRFPVCQAHGYFCQLIDGLEYLHSQGIVHKDIKPGNLLLTTGGTLKISDLGVAEALHPFAADDTCRTSQGSPAFQPPEIANGLDTFSGFKVDIWSAGVTLYNITTGLYPFEGDNIYKLFENIGKGSYAIPGDCGPPLSDLLKGMLEYEPAKRFSIRQIRQHSWFRKKHPPAEAPVPIPPSPDTKDRWRSMTVVPYLEDLHGADEDEDLFDIEDDIIYTQDFTVPGQVPEEEASHNGQRRGLPKAVCMNGTEAAQLSTKSRAEGRAPNPARKACSASSKIRRLSACKQQ [L50I], the STK11 functional score stood at 1.62 ± 0.099. For the variant MEVVDPQQLGMFTEGELMSVGMDTFIHRIDSTEVIYQPRRKRAKLIGKYMMGDLLGEGSYGKVKEVLDSETLCRRAVKILKKKKLRRIPNGEANVKKEIQLLRRLRHKNVIQLVDVLYNEEKQKMYMVMEYCVCGMQEMLDSVPEKRFPVCQAHGYFCQLIDGLEYLHSQGIVHKDIKPGNLLLTTGGTLKISDLGVAEALHPFAADDTCRTSQGSPAFQPPEIANGLDTFSGFKVDIWSAGVTLYNITTGLYPFEGDNIYKLFENIGKGSYAIPGDCGPPLSDLLKGMLEYEPAKRFSIRQIRQHSWFRKKHPPAEAPVPIPPSPDTKDRWRSMTVVPYLEDLHGADEDEDLFDIEDDIIYTQDFTVPGQVPEEEASHNGQRRGLPKAVCMNGTEAAQLSTKSRAEGRAPNPARKACSASSKIRRLSACKQQ [L50M], the STK11 functional score came out at 0.814 ± 0.23.

On to MEVVDPQQLGMFTEGELMSVGMDTFIHRIDSTEVIYQPRRKRAKLIGKYAMGDLLGEGSYGKVKEVLDSETLCRRAVKILKKKKLRRIPNGEANVKKEIQLLRRLRHKNVIQLVDVLYNEEKQKMYMVMEYCVCGMQEMLDSVPEKRFPVCQAHGYFCQLIDGLEYLHSQGIVHKDIKPGNLLLTTGGTLKISDLGVAEALHPFAADDTCRTSQGSPAFQPPEIANGLDTFSGFKVDIWSAGVTLYNITTGLYPFEGDNIYKLFENIGKGSYAIPGDCGPPLSDLLKGMLEYEPAKRFSIRQIRQHSWFRKKHPPAEAPVPIPPSPDTKDRWRSMTVVPYLEDLHGADEDEDLFDIEDDIIYTQDFTVPGQVPEEEASHNGQRRGLPKAVCMNGTEAAQLSTKSRAEGRAPNPARKACSASSKIRRLSACKQQ [L50A], for which the STK11 functional score stood at 1.52 ± 0.24. As to MEVVDPQQLGMFTEGELMSVGMDTFIHRIDSTEVIYQPRRKRAKLIGKYRMGDLLGEGSYGKVKEVLDSETLCRRAVKILKKKKLRRIPNGEANVKKEIQLLRRLRHKNVIQLVDVLYNEEKQKMYMVMEYCVCGMQEMLDSVPEKRFPVCQAHGYFCQLIDGLEYLHSQGIVHKDIKPGNLLLTTGGTLKISDLGVAEALHPFAADDTCRTSQGSPAFQPPEIANGLDTFSGFKVDIWSAGVTLYNITTGLYPFEGDNIYKLFENIGKGSYAIPGDCGPPLSDLLKGMLEYEPAKRFSIRQIRQHSWFRKKHPPAEAPVPIPPSPDTKDRWRSMTVVPYLEDLHGADEDEDLFDIEDDIIYTQDFTVPGQVPEEEASHNGQRRGLPKAVCMNGTEAAQLSTKSRAEGRAPNPARKACSASSKIRRLSACKQQ [L50R], the STK11 functional score was 1.47 ± 0.33.

In the case of MEVVDPQQLGMFTEGELMSVGMDTFIHRIDSTEVIYQPRRKRAKLIGKYCMGDLLGEGSYGKVKEVLDSETLCRRAVKILKKKKLRRIPNGEANVKKEIQLLRRLRHKNVIQLVDVLYNEEKQKMYMVMEYCVCGMQEMLDSVPEKRFPVCQAHGYFCQLIDGLEYLHSQGIVHKDIKPGNLLLTTGGTLKISDLGVAEALHPFAADDTCRTSQGSPAFQPPEIANGLDTFSGFKVDIWSAGVTLYNITTGLYPFEGDNIYKLFENIGKGSYAIPGDCGPPLSDLLKGMLEYEPAKRFSIRQIRQHSWFRKKHPPAEAPVPIPPSPDTKDRWRSMTVVPYLEDLHGADEDEDLFDIEDDIIYTQDFTVPGQVPEEEASHNGQRRGLPKAVCMNGTEAAQLSTKSRAEGRAPNPARKACSASSKIRRLSACKQQ [L50C], the STK11 functional score was 1.41 ± 0.2. On to MEVVDPQQLGMFTEGELMSVGMDTFIHRIDSTEVIYQPRRKRAKLIGKYVMGDLLGEGSYGKVKEVLDSETLCRRAVKILKKKKLRRIPNGEANVKKEIQLLRRLRHKNVIQLVDVLYNEEKQKMYMVMEYCVCGMQEMLDSVPEKRFPVCQAHGYFCQLIDGLEYLHSQGIVHKDIKPGNLLLTTGGTLKISDLGVAEALHPFAADDTCRTSQGSPAFQPPEIANGLDTFSGFKVDIWSAGVTLYNITTGLYPFEGDNIYKLFENIGKGSYAIPGDCGPPLSDLLKGMLEYEPAKRFSIRQIRQHSWFRKKHPPAEAPVPIPPSPDTKDRWRSMTVVPYLEDLHGADEDEDLFDIEDDIIYTQDFTVPGQVPEEEASHNGQRRGLPKAVCMNGTEAAQLSTKSRAEGRAPNPARKACSASSKIRRLSACKQQ [L50V], for which the STK11 functional score was 0.846 ± 0.19.
